Target: T1, NFluc-Pum2 (pumilio domain) (UniProt Q8TB72)
T1 sequence: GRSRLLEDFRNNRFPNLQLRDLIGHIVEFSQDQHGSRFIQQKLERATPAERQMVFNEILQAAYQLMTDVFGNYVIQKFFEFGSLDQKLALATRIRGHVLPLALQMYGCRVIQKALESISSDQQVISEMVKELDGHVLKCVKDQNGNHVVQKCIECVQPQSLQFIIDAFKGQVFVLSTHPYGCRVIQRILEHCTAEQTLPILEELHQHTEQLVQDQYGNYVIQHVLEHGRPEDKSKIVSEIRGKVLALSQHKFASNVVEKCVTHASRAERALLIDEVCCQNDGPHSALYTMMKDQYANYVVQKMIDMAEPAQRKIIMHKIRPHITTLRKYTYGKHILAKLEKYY
Settings: ternary with CFluc-Ago

Sequence: CAUGGUGUAUAUAGUCUUUUGAUAUAGCGGC / CUAUAUACACCAUGUU [Pum target RNA + Pum1 guide]
- activity (fold luminescence vs controls): 3

— patent US20090170069
